The test has as its target C4BPα1–2 (His6-tagged fragment of human C4b-binding protein) (human). The test is described as follows: ITC; 23 °C, PBS; 300 to 500 μM intact M2 or M2G in the syringe, 30 to 50 μM C4BPα1–2 in the cell; single-site model.

By Kd is commonly meant a measure of binding affinity in units of concentration. Broadly, the stoichiometry N is a count of units in the complex or per binding partner. “M2G (M2_(53)G; M2 aa 53–86 fused to GCN4)” yielded a Kd of 4 µM, a dH of -27 kcal/mol and a stoichiometry N of 0.51.
For “intact M2 protein (Streptococcus pyogenes, strain AP2) (natural protein)” the same measures were 4 µM, -24 kcal/mol and 0.5.

The record behind these values is article PMC10400905.
